# Data as given in PMC9687537.
# B1: GFP–WDR34-WT [human] / LIC3 [human (endogenous in RPE1)] (parent)
# chain 1: MATRAQPGPLSQAGSAGVAALATVGVASGPGPGRPGPLQDETLGVASVPSQWRAVQGIRWETKSCQTASIATASASAQARNHVDAQVQTEAPVPVSVQPPSQYDIPRLAAFLRRVEAMVIRELNKNWQSHAFDGFEVNWTEQQQMVSCLYTLGYPPAQAQGLHVTSISWNSTGSVVACAYGRLDHGDWSTLKSFVCAWNLDRRDLRPQQPSAVVEVPSAVLCLAFHPTQPSHVAGGLYSGEVLVWDLSRLEDPLLWRTGLTDDTHTDPVSQVVWLPEPGHSHRFQVLSVATDGKVLLWQGIGVGQLQLTEGFALVMQQLPRSTKLKKHPRGETEVGATAVAFSSFDPRLFILGTEGGFPLKCSLAAGEAALTRMPSSVPLRAPAQFTFSPHGGPIYSVSCSPFHRNLFLSAGTDGHVHLYSMLQAPPLTSLQLSLKYLFAVRWSPVRPLVFAAASGKGDVQLFDLQKSSQKPTVLIKQTQDESPVYCLEFNSQQTQLLAAGDAQGTVKVWQLSTEFTEQGPREAEDLDCLAAEVAA
# chain 2: MPSETLWEIAKAEVEKRGINGSEGDGAEIAEKFVFFIGSKNGGKTTIILRCLDRDEPPKPTLALEYTYGRRAKGHNTPKDIAHFWELGGGTSLLDLISIPITGDTLRTFSLVLVLDLSKPNDLWPTMENLLQATKSHVDKVIMKLGKTNAKAVSEMRQKIWNNMPKDHPDHELIDPFPVPLVIIGSKYDVFQDFESEKRKVICKTLRFVAHYYGASLMFTSKSEALLLKIRGVINQLAFGIDKSKSICVDQNKPLFITAGLDSFGQIGSPPVPENDIGKLHAHSPMELWKKVYEKLFPPKSINTLKDIKDPARDPQYAENEVDEMRIQKDLELEQYKRSSSKSWKQIELDS
# B2: GFP–WDR34-WT [human] / DYNLL2 [human (endogenous in RPE1)] (parent)
# chain 1: B1 chain 1
# chain 2: not shown
# B3: GFP–WDR34-WT [human] / WDR60 [human (endogenous in RPE1)] (parent)
# chain 1: B1 chain 1
# chain 2: MEPGKRRTKDDTWKADDLRKHLWAIQSGGSKEERKHREKKLRKESEMDLPEHKEPRCRDPDQDARSRDRVAEVHTAKESPRGERDRDRQRERRRDAKDREKEKLKEKHREAEKSHSRGKDREKEKDRRARKEELRQTVAHHNLLGQETRDRQLLERAERKGRSVSKVRSEEKDEDSERGDEDRERRYRERKLQYGDSKDNPLKYWLYKEEGERRHRKPREPDRDNKHREKSSTREKREKYSKEKSNSFSDKGEERHKEKRHKEGFHFDDERHQSNVDRKEKSAKDEPRKRESQNGEHRNRGASSKRDGTSSQHAENLVRNHGKDKDSRRKHGHEEGSSVWWKLDQRPGGEETVEIEKEETDLENARADAYTASCEDDFEDYEDDFEVCDGDDDESSNEPESREKLEELPLAQKKEIQEIQRAINAENERIGELSLKLFQKRGRTEFEKEPRTDTNSSPSRASVCGIFVDFASASHRQKSRTQALKQKMRSTKLLRLIDLDFSFTFSLLDLPPVNEYDMYIRNFGKKNTKQAYVQCNEDNVERDIQTEEIETREVWTQHPGESTVVSGGSEQRDTSDAVVMPKIDTPRLCSFLRAACQVMAVLLEEDRLAAEPSWNLRAQDRALYFSDSSSQLNTSLPFLQNRKVSSLHTSRVQRQMVVSVHDLPEKSFVPLLDSKYVLCVWDIWQPSGPQKVLICESQVTCCCLSPLKAFLLFAGTAHGSVVVWDLREDSRLHYSVTLSDGFWTFRTATFSTDGILTSVNHRSPLQAVEPISTSVHKKQSFVLSPFSTQEEMSGLSFHIASLDESGVLNVWVVVELPKADIAGSISDLGLMPGGRVKLVHSALIQLGDSLSHKGNEFWGTTQTLNVKFLPSDPNHFIIGTDMGLISHGTRQDLRVAPKLFKPQQHGIRPVKVNVIDFSPFGEPIFLAGCSDGSIRLHQLSSAFPLLQWDSSTDSHAVTGLQWSPTRPAVFLVQDDTSNIYIWDLLQSDLGPVAKQQVSPNRLVAMAAVGEPEKAGGSFLALVLARASGSIDIQHLKRRWAAPEVDECNRLRLLLQEALWPEGKLHK
# Variants of: B1
# Assay: GFP-trap purification, TMT-labelling and mass spectrometry
# Settings: with LIC3 [human (endogenous in RPE1)]; RPE1 WDR34 KO cell lines expressing GFP proteins, serum-starved for 24 h; read off a plot
row,ratio to parent,Variant
1,2.2,chain 1 MATRAQPGPLSQAGSAGVAALATVGVASGPGPGRPGPLQDETLGVASVPSQWRAVQGIRWETKSCQTASIATASASAQARNHVDAQVQTEAPVPVSVQPPSQYDIPRLAAFLRRVEAMVIRELNKNWQSHAFDGFEVNWTEQQQMVSCLYTLGYPPAQAQGLHVTSISWNSTGSVVACAYGRLDHGDWSTLKSFVCAWNLDRRDLRPQQPSAVVEVPSAVLCLAFHPTQPSHVAGGLYSGEVLVWDLSRLEDPLLWRTGLTDDTHTDPVSQVVWLPEPGHSHRFQVLSVATDGKVLLWQGIGVGQLQLTEGFALVMQQLPRSTKLKKHPRGETEVGATAVVFSSFDPRLFILGTEGGFPLKCSLAAGEAALTRMPSSVPLRAPAQFTFSPHGGPIYSVSCSPFHRNLFLSAGTDGHVHLYSMLQAPPLTSLQLSLKYLFAVRWSPVRPLVFAAASGKGDVQLFDLQKSSQKPTVLIKQTQDESPVYCLEFNSQQTQLLAAGDAQGTVKVWQLSTEFTEQGPREAEDLDCLAAEVAA [chain 1 A341V]

# Variants of: B2
# Assay: as above
# Settings: with DYNLL2 [human (endogenous in RPE1)]; RPE1 WDR34 KO cell lines expressing GFP proteins, serum-starved for 24 h; read off a plot
row,ratio to parent,Variant
1,1.5,chain 1 T354M

# Variants of: B3
# Assay: as above
# Settings: with WDR60 [human (endogenous in RPE1)]; RPE1 WDR34 KO cell lines expressing GFP proteins, serum-starved for 24 h; read off a plot
row,ratio to parent,Variant
1,1.3,chain 1 MATRAQPGPLSQAGSAGVAALATVGVASGPGPGRPGPLQDETLGVASVPSQWRAVQGIRWETKSCQTASIATASASAQARNHVDAQVQTEAPVPVSVQPPSQYDIPRLAAFLRRVEAMVIRELNKNWQSHAFDGFEVNWTEQQQMVSCLYTLGYPPAQAQGLHVTSISWNSTGSVVACAYGRLDHGDWSTLKSFVCAWNLDRRDLRPQQPSAVVEVPSAVLCLAFHPTQPSHVAGGLYSGEVLVWDLSRLEDPLLWRTGLTDDTHTDPVSQVVWLPEPGHSHRFQVLSVATDGKVLLWQGIGVGQLQLTEGFALVMQQLPRSTKLKKHPRGETEVGATAVVFSSFDPRLFILGTEGGFPLKCSLAAGEAALTRMPSSVPLRAPAQFTFSPHGGPIYSVSCSPFHRNLFLSAGTDGHVHLYSMLQAPPLTSLQLSLKYLFAVRWSPVRPLVFAAASGKGDVQLFDLQKSSQKPTVLIKQTQDESPVYCLEFNSQQTQLLAAGDAQGTVKVWQLSTEFTEQGPREAEDLDCLAAEVAA [chain 1 A341V]
2,1.7,chain 1 MATRAQPGPLSQAGSAGVAALATVGVASGPGPGRPGPLQDETLGVASVPSQWRAVQGIRWETKSCQTASIATASASAQARNHVDAQVQTEAPVPVSVQPPSQYDIPRLAAFLRRVEAMVIRELNKNWQSHAFDGFEVNWTEQQQMVSCLYTLGYPPAQAQGLHVTSISWNSTGSVVACAYGWLDHGDWSTLKSFVCAWNLDRRDLRPQQPSAVVEVPSAVLCLAFHPTQPSHVAGGLYSGEVLVWDLSRLEDPLLWRTGLTDDTHTDPVSQVVWLPEPGHSHRFQVLSVATDGKVLLWQGIGVGQLQLTEGFALVMQQLPRSTKLKKHPRGETEVGATAVAFSSFDPRLFILGTEGGFPLKCSLAAGEAALTRMPSSVPLRAPAQFTFSPHGGPIYSVSCSPFHRNLFLSAGTDGHVHLYSMLQAPPLTSLQLSLKYLFAVRWSPVRPLVFAAASGKGDVQLFDLQKSSQKPTVLIKQTQDESPVYCLEFNSQQTQLLAAGDAQGTVKVWQLSTEFTEQGPREAEDLDCLAAEVAA [chain 1 R182W]
3,1.4,chain 1 MATRAQPGPLSQAGSAGVAALATVGVASGPGPGRPGPLQDETLGVASVPSQWRAVQGIRWETKSCQTASIATASASAQARNHVDAQVQTEAPVPVSVQPPSQYDIPRLAAFLRRVEAMVIRELNKNWQSHAFDGFEVNWTEQQQMVSCLYTLGYPPAQAQGLHVTSISWNSTGSVVACAYGRLDHGDWSTLKSFVCAWNLDRRDLRPQQPSAVVEVPSAVLCLAFHPTQPSHVAGGLYSGEVLVWDLSRLEDPLLWRTGLTDDTHTDPVSQVVWLPEPGHSHRFQVLSVATDGKVLLWQGIGVGQLQLTEGFALVMQQLPRSTKLKKHPRGETEVGATAVAFSSFDPRLFILGTEGGFPLKCSLAAGEAALTRMPSSVPLRAPAQFTFSPHGGPIYSVSCSPFHRNLFLSAGTDGHVHLYSMLQAPPLTSLQLSLRYLFAVRWSPVRPLVFAAASGKGDVQLFDLQKSSQKPTVLIKQTQDESPVYCLEFNSQQTQLLAAGDAQGTVKVWQLSTEFTEQGPREAEDLDCLAAEVAA [chain 1 K436R]
4,1.5,chain 1 MATRAQPGPLSQAGSAGVAALATVGVASGPGPGRPGPLQDETLGVASVPSQWRAVQGIRWETKSCQTASIATASASAQARNHVDAQVQTEAPVPVSVQPPSQYDIPRLAAFLRRVEAMVIRELNKNWQSHAFDGFEVNWTEQQQMVSCLYTLGYPPAQAQGLHVTSISWNSTGSVVACAYGRLDHGDWSTLKSFVCAWNLDRRDLCPQQPSAVVEVPSAVLCLAFHPTQPSHVAGGLYSGEVLVWDLSRLEDPLLWRTGLTDDTHTDPVSQVVWLPEPGHSHRFQVLSVATDGKVLLWQGIGVGQLQLTEGFALVMQQLPRSTKLKKHPRGETEVGATAVAFSSFDPRLFILGTEGGFPLKCSLAAGEAALTRMPSSVPLRAPAQFTFSPHGGPIYSVSCSPFHRNLFLSAGTDGHVHLYSMLQAPPLTSLQLSLKYLFAVRWSPVRPLVFAAASGKGDVQLFDLQKSSQKPTVLIKQTQDESPVYCLEFNSQQTQLLAAGDAQGTVKVWQLSTEFTEQGPREAEDLDCLAAEVAA [chain 1 R206C]
